Legend:
FcγRIa [1] = biological target: T1, FcγRIa (human, UniProt P12314 16-292); experiment: SPR; He/Con_1a divided by He/Con_2b (FcγRIIb as reference)
T1 construct: extracellular domain; also called FcgRI; 1a; not shown: His tag at the C terminus

FcγRIa [2] = biological target: T1, FcγRIa; experiment: SPR (Biacore), captured antibody, soluble FcγR; relative to GpH7-A5/GpH7-B3/GpL16-k0
FcγRIIb = biological target: T2, FcγRIIb (human, UniProt P31994 43-217); experiment: as above
T2 construct: extracellular domain; also called FcgRIIb; 2b; not shown: His tag at the C terminus
T2 sequence (looked up): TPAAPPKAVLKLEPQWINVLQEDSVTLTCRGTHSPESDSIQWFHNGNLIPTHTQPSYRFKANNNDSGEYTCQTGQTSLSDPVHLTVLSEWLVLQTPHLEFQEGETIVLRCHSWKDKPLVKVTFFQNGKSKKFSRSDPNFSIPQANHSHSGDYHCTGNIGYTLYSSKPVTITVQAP

T1 sequence (P12314 16-292): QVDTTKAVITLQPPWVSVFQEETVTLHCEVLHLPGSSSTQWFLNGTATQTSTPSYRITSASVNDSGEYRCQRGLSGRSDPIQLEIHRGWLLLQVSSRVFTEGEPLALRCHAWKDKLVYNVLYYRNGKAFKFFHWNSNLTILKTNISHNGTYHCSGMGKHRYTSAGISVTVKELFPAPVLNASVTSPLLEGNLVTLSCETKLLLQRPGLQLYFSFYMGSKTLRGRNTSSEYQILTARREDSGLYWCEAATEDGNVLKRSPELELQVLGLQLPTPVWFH

B1: GpH7-A5/GpH7-B3 variant D265_06M/GpL16-k0 (antibody, human IgG1, kappa)
heavy 1: not shown
heavy 2: not shown
light: DIVMTQSPLSLPVTPGEPASISCQASESLVHSNRNTYLHWYLQKPGQSPQLLIYKVSNRFSGVPDRFSGSGSGTDFTLKISRVEAEDVGVYYCSQNTHVPPTFGQGTKVEIERTVAAPSVFIFPPSDEQLKSGTASVVCLLNNFYPREAKVQWKVDNALQSGNSQESVTEQDSKDSTYSLSSTLTLSKADYEKHKVYACEVTHQGLSSPVTKSFNRGEC
notes: He Ab: mutation only in the GpH7-B3 H chain; EU numbering; also called He Ab
FcγRIa [1]
  Ia/IIb He_1a/2b: 7.57 ratio
FcγRIa [2]
  He/Con_1a: 75.7 relative, HeCon Ab = 100
FcγRIIb
  He/Con_2b: 10 relative, HeCon Ab = 100

B2: GpH7-A5/GpH7-B3 variant S239_20W/GpL16-k0 (antibody, human IgG1, kappa)
heavy 1: not shown
heavy 2: not shown
light: DIVMTQSPLSLPVTPGEPASISCQASESLVHSNRNTYLHWYLQKPGQSPQLLIYKVSNRFSGVPDRFSGSGSGTDFTLKISRVEAEDVGVYYCSQNTHVPPTFGQGTKVEIERTVAAPSVFIFPPSDEQLKSGTASVVCLLNNFYPREAKVQWKVDNALQSGNSQESVTEQDSKDSTYSLSSTLTLSKADYEKHKVYACEVTHQGLSSPVTKSFNRGEC
notes: as for B1
FcγRIa [1]
  Ia/IIb He_1a/2b: 2.06 ratio
FcγRIa [2]
  He/Con_1a: 92.7 relative, HeCon Ab = 100
FcγRIIb
  He/Con_2b: 45.1 relative, HeCon Ab = 100

B3: GpH7-A5/GpH7-B3 variant S267_11K/GpL16-k0 (antibody, human IgG1, kappa)
heavy 1: not shown
heavy 2: not shown
light: DIVMTQSPLSLPVTPGEPASISCQASESLVHSNRNTYLHWYLQKPGQSPQLLIYKVSNRFSGVPDRFSGSGSGTDFTLKISRVEAEDVGVYYCSQNTHVPPTFGQGTKVEIERTVAAPSVFIFPPSDEQLKSGTASVVCLLNNFYPREAKVQWKVDNALQSGNSQESVTEQDSKDSTYSLSSTLTLSKADYEKHKVYACEVTHQGLSSPVTKSFNRGEC
notes: as for B1
FcγRIa [1]
  Ia/IIb He_1a/2b: 7.65 ratio
FcγRIa [2]
  He/Con_1a: 93.3 relative, HeCon Ab = 100
FcγRIIb
  He/Con_2b: 12.2 relative, HeCon Ab = 100

B4: GpH7-A5/GpH7-B3 variant D265_08L/GpL16-k0 (antibody, human IgG1, kappa)
heavy 1: not shown
heavy 2: not shown
light: DIVMTQSPLSLPVTPGEPASISCQASESLVHSNRNTYLHWYLQKPGQSPQLLIYKVSNRFSGVPDRFSGSGSGTDFTLKISRVEAEDVGVYYCSQNTHVPPTFGQGTKVEIERTVAAPSVFIFPPSDEQLKSGTASVVCLLNNFYPREAKVQWKVDNALQSGNSQESVTEQDSKDSTYSLSSTLTLSKADYEKHKVYACEVTHQGLSSPVTKSFNRGEC
notes: as for B1
FcγRIa [1]
  Ia/IIb He_1a/2b: 12.4 ratio
FcγRIa [2]
  He/Con_1a: 56.8 relative, HeCon Ab = 100
FcγRIIb
  He/Con_2b: 4.6 relative, HeCon Ab = 100

B5: GpH7-A5/GpH7-B3 variant D265_13S/GpL16-k0 (antibody, human IgG1, kappa)
heavy 1: not shown
heavy 2: not shown
light: DIVMTQSPLSLPVTPGEPASISCQASESLVHSNRNTYLHWYLQKPGQSPQLLIYKVSNRFSGVPDRFSGSGSGTDFTLKISRVEAEDVGVYYCSQNTHVPPTFGQGTKVEIERTVAAPSVFIFPPSDEQLKSGTASVVCLLNNFYPREAKVQWKVDNALQSGNSQESVTEQDSKDSTYSLSSTLTLSKADYEKHKVYACEVTHQGLSSPVTKSFNRGEC
notes: as for B1
FcγRIa [1]
  Ia/IIb He_1a/2b: 6.07 ratio
FcγRIa [2]
  He/Con_1a: 68.7 relative, HeCon Ab = 100
FcγRIIb
  He/Con_2b: 11.3 relative, HeCon Ab = 100

B6: GpH7-A5/GpH7-B3 variant D265_12R/GpL16-k0 (antibody, human IgG1, kappa)
heavy 1: not shown
heavy 2: not shown
light: DIVMTQSPLSLPVTPGEPASISCQASESLVHSNRNTYLHWYLQKPGQSPQLLIYKVSNRFSGVPDRFSGSGSGTDFTLKISRVEAEDVGVYYCSQNTHVPPTFGQGTKVEIERTVAAPSVFIFPPSDEQLKSGTASVVCLLNNFYPREAKVQWKVDNALQSGNSQESVTEQDSKDSTYSLSSTLTLSKADYEKHKVYACEVTHQGLSSPVTKSFNRGEC
notes: as for B1
FcγRIa [1]
  Ia/IIb He_1a/2b: 2.96 ratio
FcγRIa [2]
  He/Con_1a: 44.3 relative, HeCon Ab = 100
FcγRIIb
  He/Con_2b: 15 relative, HeCon Ab = 100

B7: GpH7-A5/GpH7-B3 variant S267_05P/GpL16-k0 (antibody, human IgG1, kappa)
heavy 1: not shown
heavy 2: not shown
light: DIVMTQSPLSLPVTPGEPASISCQASESLVHSNRNTYLHWYLQKPGQSPQLLIYKVSNRFSGVPDRFSGSGSGTDFTLKISRVEAEDVGVYYCSQNTHVPPTFGQGTKVEIERTVAAPSVFIFPPSDEQLKSGTASVVCLLNNFYPREAKVQWKVDNALQSGNSQESVTEQDSKDSTYSLSSTLTLSKADYEKHKVYACEVTHQGLSSPVTKSFNRGEC
notes: as for B1
FcγRIa [1]
  Ia/IIb He_1a/2b: 2.91 ratio
FcγRIa [2]
  He/Con_1a: 91.8 relative, HeCon Ab = 100
FcγRIIb
  He/Con_2b: 31.5 relative, HeCon Ab = 100

B8: GpH7-A5/GpH7-B3 variant D265_15Y/GpL16-k0 (antibody, human IgG1, kappa)
heavy 1: not shown
heavy 2: not shown
light: DIVMTQSPLSLPVTPGEPASISCQASESLVHSNRNTYLHWYLQKPGQSPQLLIYKVSNRFSGVPDRFSGSGSGTDFTLKISRVEAEDVGVYYCSQNTHVPPTFGQGTKVEIERTVAAPSVFIFPPSDEQLKSGTASVVCLLNNFYPREAKVQWKVDNALQSGNSQESVTEQDSKDSTYSLSSTLTLSKADYEKHKVYACEVTHQGLSSPVTKSFNRGEC
notes: as for B1
FcγRIa [1]
  Ia/IIb He_1a/2b: 73.5 ratio
FcγRIa [2]
  He/Con_1a: 44.3 relative, HeCon Ab = 100
FcγRIIb
  He/Con_2b: 0.6 relative, HeCon Ab = 100

B9: GpH7-A5/GpH7-B3 variant S267_04F/GpL16-k0 (antibody, human IgG1, kappa)
heavy 1: not shown
heavy 2: not shown
light: DIVMTQSPLSLPVTPGEPASISCQASESLVHSNRNTYLHWYLQKPGQSPQLLIYKVSNRFSGVPDRFSGSGSGTDFTLKISRVEAEDVGVYYCSQNTHVPPTFGQGTKVEIERTVAAPSVFIFPPSDEQLKSGTASVVCLLNNFYPREAKVQWKVDNALQSGNSQESVTEQDSKDSTYSLSSTLTLSKADYEKHKVYACEVTHQGLSSPVTKSFNRGEC
notes: as for B1
FcγRIa [1]
  Ia/IIb He_1a/2b: 2.04 ratio
FcγRIa [2]
  He/Con_1a: 97.7 relative, HeCon Ab = 100
FcγRIIb
  He/Con_2b: 48 relative, HeCon Ab = 100

From patent US20180155451A1 (published 2018)
